Laboratory results from patent publication US20100021386A1.

Tests used:
[1] = biological target: IGF-II receptor (Long Evans rat liver) (rat); experiment: saturation binding of [125I] IGF-II to pooled rat liver homogenate, filter plates; control diet, vehicle
[2] = biological target: IGF-II receptor (Long Evans rat liver) (rat); experiment: saturation binding of [125I] IGF-II to pooled rat liver homogenate, filter plates; ethanol diet, vehicle
[3] = biological target: IGF-II receptor (Long Evans rat liver) (rat); experiment: saturation binding of [125I] IGF-II to pooled rat liver homogenate, filter plates; control diet, PPAR-α agonist treated rats
[4] = biological target: IGF-II receptor (Long Evans rat liver) (rat); experiment: saturation binding of [125I] IGF-II to pooled rat liver homogenate, filter plates; control diet, PPAR-γ agonist treated rats
[5] = biological target: IGF-II receptor (Long Evans rat liver) (rat); experiment: saturation binding of [125I] IGF-II to pooled rat liver homogenate, filter plates; control diet, PPAR-δ agonist treated rats
[6] = biological target: IGF-II receptor (Long Evans rat liver) (rat); experiment: saturation binding of [125I] IGF-II to pooled rat liver homogenate, filter plates; ethanol diet, PPAR-α agonist treated rats
[7] = biological target: IGF-II receptor (Long Evans rat liver) (rat); experiment: saturation binding of [125I] IGF-II to pooled rat liver homogenate, filter plates; ethanol diet, PPAR-γ agonist treated rats
[8] = biological target: IGF-II receptor (Long Evans rat liver) (rat); experiment: saturation binding of [125I] IGF-II to pooled rat liver homogenate, filter plates; ethanol diet, PPAR-δ agonist treated rats

Chain of Human recombinant [125I] IGF-II (P01344 25-91): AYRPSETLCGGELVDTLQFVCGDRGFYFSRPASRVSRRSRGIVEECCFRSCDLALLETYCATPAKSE

Human recombinant [125I] IGF-II (from UniProt P01344 25-91) (ligand)
BMAX [1]: 40.1 | BMAX [2]: 22.6 | BMAX [3]: 40.3 | BMAX [4]: 25.2 | BMAX [5]: 29 | BMAX [6]: 28.9 | BMAX [7]: 22.6 | BMAX [8]: 51.5
